Source: patent US20200270343A1 (COMPUGEN, published 2020)
One block for each binder: values may come before it.

What was measured:
[1] = target: human VSIG10 protein endogenously expressed on human cell lines (DAN-G, AsPc1/ASPC-1, DU-145, ZR-75) (human) (UniProt Q8N0Z9); assay: FACS on AsPc1 cells after VSIG10 siRNA knock down; 10 ug/ml mAb vs mIgG1 kappa isotype
[2] = target: human VSIG10 protein endogenously expressed on human cell lines (DAN-G, AsPc1/ASPC-1, DU-145, ZR-75) (human) (UniProt Q8N0Z9); assay: FACS on DAN-G cells after VSIG10 siRNA knock down; 10 ug/ml mAb vs mIgG1 kappa isotype
[3] = target: human VSIG10 protein endogenously expressed on human cell lines (DAN-G, AsPc1/ASPC-1, DU-145, ZR-75) (human) (UniProt Q8N0Z9); assay: FACS on DAN-G cells transfected with scrambled (non-target) siRNA; 10 ug/ml mAb vs mIgG1 kappa isotype
[4] = target: human VSIG10 protein endogenously expressed on human cell lines (DAN-G, AsPc1/ASPC-1, DU-145, ZR-75) (human) (UniProt Q8N0Z9); assay: FACS on AsPc1 cells transfected with scrambled (non-target) siRNA; 10 ug/ml mAb vs mIgG1 kappa isotype
[5] = target: T1, human VSIG10 flag protein over-expressed in HEK293 cells (stable pool) (human); assay: FACS titration (4 concentrations) on HEK293 cells over-expressing human VSIG10 Flag; Kd from binding curve
T1 chain: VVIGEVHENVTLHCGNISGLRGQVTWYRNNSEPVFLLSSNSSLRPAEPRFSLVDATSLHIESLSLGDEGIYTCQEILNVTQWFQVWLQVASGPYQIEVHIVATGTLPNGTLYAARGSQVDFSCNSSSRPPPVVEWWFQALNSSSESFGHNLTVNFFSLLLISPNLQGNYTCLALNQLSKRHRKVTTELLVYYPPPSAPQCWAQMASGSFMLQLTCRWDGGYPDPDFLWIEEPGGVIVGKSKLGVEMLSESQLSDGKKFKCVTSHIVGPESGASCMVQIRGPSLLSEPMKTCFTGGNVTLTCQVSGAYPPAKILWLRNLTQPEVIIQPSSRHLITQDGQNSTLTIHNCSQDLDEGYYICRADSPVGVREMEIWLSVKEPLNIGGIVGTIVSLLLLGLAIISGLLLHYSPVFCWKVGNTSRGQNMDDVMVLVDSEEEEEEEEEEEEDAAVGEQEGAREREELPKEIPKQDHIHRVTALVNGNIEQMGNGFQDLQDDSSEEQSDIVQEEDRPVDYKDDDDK
Procedure: (§1) The mAb binding was evaluated on HEK293 cells over expressing human VSIG10 as well.
(§2) Detection was carried out using Goat Anti mouse-PE secondary Ab.

[6] = target: T1, human VSIG10 flag protein …; assay: FACS on HEK293 cells over-expressing human VSIG10 Flag vs HEK293 empty vector cells; goat anti mouse PE detection
Procedure: The performance of the purified mAbs against human VSIG10, in FACS application were tested using HEK293 cells over-expressing human VSIG10 Flag. HEK293 cells transfected with an empty vector were used as a negative control.
Detection was carried out using Goat anti mouse PE secondary Ab.

[7] = target: human VSIG10 protein endogenously expressed on human cell lines (DAN-G, AsPc1/ASPC-1, DU-145, ZR-75) (human) (UniProt Q8N0Z9); assay: FACS titration (4 concentrations) on DU-145 human cell line endogenously expressing VSIG10, vs mIgG1 kappa isotype; Kd from binding curve
[8] = target: T1, human VSIG10 flag protein …; assay: FACS titration (8 concentrations) on HEK293 cells over-expressing human VSIG10 Flag; Kd from binding curve
Procedure: as §1, §2

[9] = target: human VSIG10 protein endogenously expressed on human cell lines (DAN-G, AsPc1/ASPC-1, DU-145, ZR-75) (human) (UniProt Q8N0Z9); assay: FACS titration (8 concentrations) on ASPC-1 human cell line endogenously expressing VSIG10, vs mIgG1 kappa isotype; Kd from binding curve

- MFI ratio of anti VSIG10 versus isotype control [1]: 5.2 fold
- MFI ratio of anti VSIG10 versus isotype control [2]: 3.54 fold
- MFI ratio of anti VSIG10 versus isotype control [3]: 12 fold
- MFI ratio of anti VSIG10 versus isotype control [4]: 9.3 fold
- Kd [5]: 4.67 nM
- fold change MFI ratio (VSIG10 Flag cells vs empty vector cells) [6]: 160 fold
- Kd [7]: 4.62 nM
B1: AB-577 anti-human VSIG10 mouse monoclonal antibody (antibody, V domains shown)
VH: QVQLQQSGPELVRPGASVKMSCKPSGYRFTDYAISWVKQRTGQGLEWVGEIYPGNGNTYFNEKFKDKATLTADRSSNTAYMQLSSLTSEDSAVYFCARGYANYLPWGQGTLVTVSA
VL: DIQMTQSSSSFSVSLGDRVTITCKASEDIYNRLAWYQQKPGNAPRLLISGATGLETGVPSRISGSGSGRDYTLSITSLQTEDVGTYYCQQYWSTPRTFGGGTKLEIK
notes: clonal supernatant was also tested in WB

- MFI ratio of anti VSIG10 versus isotype control [1]: 4.4 fold
- MFI ratio of anti VSIG10 versus isotype control [2]: 2.8 fold
- MFI ratio of anti VSIG10 versus isotype control [3]: 9.5 fold
- MFI ratio of anti VSIG10 versus isotype control [4]: 9.5 fold
- Kd [8]: 4.14 nM
- fold change MFI ratio (VSIG10 Flag cells vs empty vector cells) [6]: 219 fold
- Kd [9]: 5.85 nM
B2: AB-576 anti-human VSIG10 mouse monoclonal antibody (antibody, V domains shown)
VH: EVQLQQSGPELVKPGASVKMSCKASGYTFTDYYMKWVKQSHGKSLEWIGDINPNNGGTTYNQKFKGKATLTVDKSSNTAYMQFNSLTSEDSAVYFCARFRLRAMDYWGQGTSVTVSS
VL: DIVMTQSPSSLTVTAGEKVTMSCKSSQSLLNSGDRKNYLTWYQQRPGLPPKLLIYWASTRESGVPDRFTGSGSGTDFTLTISSVQSEDLAVYFCQNDYIYPLTFGAGTKLELK
notes: as for B1
